# In paper PMC8196545 (Cell reports, 2021):
# Target: HIV-1 NL4-3 Env on infected cells (HIV-1 group M subtype B, NL4-3 (pNL4-3 …, strain))
row,Binder,binding result
1,"c2842 (antibody, V domains shown) VH: QVQLVQSGAEMKKPGSSVKVSCKASGGSFRSFTVNWVRQAPGQGLEWVGRIIAIFGSVDYAQKFQGRVTISADESTSTFYMDINSLKSEDTAVYYCVRDGLVGGRDFWGQGTQVTVSS VL: EIVLTQSPGTLSLSPGERATLFCRASQSIKKNYVAWYQQNPGQAPRLLIYGASSRATGTPDRFRGSGSGTDFTLTISRLEPEDFAVYYCQQYGSAQYSFGQGTKLEIK",binds
2,"c3214 (antibody, V domains shown) VH: QVQLVQSGAEVKKPGSSVKVSCKASGDNFSGYGINWVRQAPGQGLEWMGRIFPMLPVPSYAQKFQGRVTITADESTNSAYLELTSLRSEDSAVYYCARGTGEGDYFDYWGQGTQVTVSS VL: DIQMTQSPSSVSASVGDRVTITCRASQGISRYVAWYQQKPGKAPKLLIYAASSLETGVPSRFSGSGSGTDFTLTISSLEPEDFATYYCQQANSFPLTFGGGTKVEIK",binds
3,"c8595 (antibody, V domains shown) VH: QVKLQESGPGLVKPSETLSLTCVVSGVSISQSDYFWNWLRQTPGKGLEWLGFISYSGDTFFNPSLESRLGMSVDTSSNHISLSLKSMTAADAAVYYCARTFCDDVKCYPLFDSWGHGKLVAVSS VL: DIVMTQSPDSLPLSPGERASINCQSSQSVLYSSDNRNYLAWYQLKPGQPPKLLIYWASVRASGVPDRFSGSGSGTDFTLSISSLQAEDVAVYYCQQYYITPYSFGQGTKVEIR",binds
4,"c32045 (antibody, V domains shown) VH: AVQLLESGGGLVKPGGSLRLSCAASGFTFGSYAMHWVRQAPGKGLEWVSSINISSTTYMYYSDSLKGRFTISRDNAKKTLYLQMASLRPEDTAVYYCVREATYCGSQCYSRYFDFWGSGTLVAVSS VL: DIQMTQSPPSVSAGVGDRVTITCRASQTISGFLSWYQQKPGKAPKLLIYAASTLHSGVPSRFSGSGSGTDFTLTISSLQPEDFATYYCQQSYSAPRTFGQGTKLEIK",binds
5,"c1897 (antibody, V domains shown) VH: EVQLVQSGAEVKKPGSSVKVSCKGSGGTLNMFALSWVRQAPGQGLEWVGGIIPSFGTTNYAQKFEGRVTITADDSADESTATVHMELSSLRRDDTAVYYCARESSGRADDSLIGYFDRQGEYYFDFWGQGTLVTVSS VL: DIQMTQSPSTLSASIGDRVTITCRASQSISTLLAWYQQKPGKAPKLLISKASSLQSGVSARFSGSGSGTEFTLTINSLQPDDFATYSCQQYNSHPVTFGQGTKLEIK",binds
6,"c13173 (antibody, V domains shown) VH: EVYLMESGGGLVQPGGSLRLSCEVSGLNRTDYWMHWIRQPPGKGLEWVSRIYSHGGGTTYADSVRGRFSLSRDSAKSTLFLEMNSLRVEDTAIYYCLFSEGDFWGPGTLVTVSS VL: QSALTQPASLSGSPGQSITISCTGNSSDIGKSDYVSWYRQDPGKAPKLLIYDVSSRLSGISDRFSGSKSDNTASLTISGLQAEDEADYYCSSYTNWDTKVFGTGTRVTVL",binds
7,"c8549 (antibody, V domains shown) VH: QVTLKESGPTLLRPADTLTLTCNFSGFSLTTDGVALGWMRQSPGKAPEWLAFLFYDDDKQYNPHLKSRLIISKASSTNQLVLAMTNMGPADAGTYFCARLNVLVHDVPPRNYGLDVWGRGITITVSS VL: DIVLTQSPVSLSVTPGQSASMSCKSSETLLHEDGKSYLYWYLQKPGQSPQLLIYEASKRFSGVSDRFTASGTGTHFTLQIDRVEVDDVGVYYCMENLKALTFGGGTRMEIK",binds
8,"c12286 (antibody, V domains shown) VH: EVHLVESGGGWIHPGMALRLSCAASGFTFEDFAMHWIRQVPGKGLEWVSSITWNGRDTAYADSVKGRFTISRDNAKNSLYLQMNSLRTEDTALYYCVKDSSVSSHYFDSWGQGIMAFVSS VL: AIQMTQSPSTLSASVGDTVTITCRASQSVSAWLAWYQQKPGKAPKLLIYKASSLQTGVPSRFSGSGSGTEFTLTINSLQPDDFATYSCQQYNFYPWTFGPGTKVEIK",binds
